According to PMC3472557, “Structural Basis for ASPP2 Recognition by the Tumor Suppressor p73” (Journal of Molecular Biology, 2012):

Molecular target: T1, ankyrin repeat and SH3 domains of human ASPP2 (residues P891–A1128) (human, UniProt Q13625 891-1128)
T1 construct: ASPP2 (53BP2), human, ankyrin repeat and SH3 domains, residues P891-A1128, UniProt Q13625; cloned into pCOEX-LIC1; The limits are stated for the crystallised construct; also called 53BP2; source: E. coli BL21(DE3) R3 pRARE, purified (nickel-Sepharose, TEV protease, HiTrap Q, Superdex 200); not shown: His6, N-terminal, cleaved
T1 sequence (looked up): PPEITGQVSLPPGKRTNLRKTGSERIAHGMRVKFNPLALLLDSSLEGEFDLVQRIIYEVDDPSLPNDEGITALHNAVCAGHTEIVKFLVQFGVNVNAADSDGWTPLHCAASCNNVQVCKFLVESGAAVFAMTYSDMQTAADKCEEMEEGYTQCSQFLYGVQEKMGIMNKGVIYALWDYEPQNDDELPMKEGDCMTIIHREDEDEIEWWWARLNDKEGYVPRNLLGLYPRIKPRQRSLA
Test: native gel or EMSA; 20 uM ASPP2 with decreasing concentrations of p73 112-315; 4 °C overnight; 50 mM sodium phosphate, pH 7.2, 50 mM NaCl, 5 mM DTT, 50 mM L-arginine, 50 mM L-glutamate; 10% polyacrylamide gel in Tris-glycine, pH 8.3, Coomassie stain
Conditions: both partners purified

- binding result: binds
B1: p73 DBD (p73 amino acids 112–315) (domain or fragment, human, UniProt O15350 112-315, looked up)
chain: APVIPSNTDYPGPHHFEVTFQQSSTAKSATWTYSPLLKKLYCQIAKTCPIQIKVSTPPPPGTAIRAMPVYKKAEHVTDVVKRCPNHELGRDFNEGQSAPASHLIRVEGNNLSQYVDDPVTGRQSVVVPYEPPQVGTEFTTILYNFMCNSSCVGGMNRRPILIIITLEMRDGQVLGRRSFEGRICACPGRDRKADEDHYREQQAL
notes: It may be a misprint for 112-311; source: E. coli BL21(DE3) R3 pRARE, purified (said of all proteins)
